PMC12327846

target: T1, DtxR (Corynebacterium glutamicum) (UniProt Q8NP95); test: EMSA; settings: EMSA: 31 nM DNA, DtxR at 0/50/200-fold (A) or 0/300/400-fold (B) excess; 50 mM Tris-HCl pH 7.5, 5 mM MgCl2 (rest of buffer not in material); 30 min, room …
T1 sequence: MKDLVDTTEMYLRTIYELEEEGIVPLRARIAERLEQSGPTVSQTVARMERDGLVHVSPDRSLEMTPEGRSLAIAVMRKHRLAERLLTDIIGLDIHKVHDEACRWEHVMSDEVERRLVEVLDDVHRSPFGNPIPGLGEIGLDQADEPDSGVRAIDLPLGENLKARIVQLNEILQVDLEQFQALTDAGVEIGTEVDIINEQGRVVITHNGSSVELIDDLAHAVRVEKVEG

Sequence	binding
AACCTGGGGGTTATATAAAAAACTTCACAAAAAGGTTGCATCCGCATCAACCGAAAGATAGTGTGTGTGAGGCAAGCCTAAGTAAACTTCTTCAAGGTTCGGGCTGGTTCCTTGAAGACGG (double strand) [xerC promoter 121 bp]	binds
GAGTAGTAGCAGTGGGTATTTGCAAGCCTTTGACAAGTTACTAAACCGTGCTACCGAAACCCCTCGTGTTTAAATCTAGAAGTTTAAAGGGTGAAAACAGTCCATTACTTAAGCACCAATC (double strand) [NCgl0177 promoter 121 bp]	no binding
GGACCTAAGCGTGTAAGATGGAAACGTCTGTATCGGATAAGTAGCGAGGAGTGTTCGTTAAAAGTGGCAAACACTGAACACAATTATGACGCTTCATCGATCACCATCCTTGAAGGTCTTG (double strand) [gyrB promoter 121 bp]	no binding
GTGGCGCTTTGCCTGTGTTGCTTAGGCGGCGTTGAAAATGAACTACGAATGAAAAGTTCGGGAATTGTCTAATCCGTACTAAGCTGTCTACACAATGTCTACTTCAGTTACTTCACCAGC (double strand) [metH promoter 121 bp]	binds
TAGTCGTATCAAAAAGTGCTCTGATCTTAACTTTGCCCTACCTAAATACATGACCCCACCACGACGGCCAGTACTAACGACAGAATCCACTAGCGAACCCATTTATTAACAAACATTGCAA (double strand) [NCgl2776 promoter 121 bp (primers named NCgl2766)]	binds
TTTGACGTGCTTTTTTAGCACGCCATTAAGCTAAAAATAAGGTTAGGGTGCGTTATGTTTTCAGGTATCAAAAGGTGCTAATGCCTTTATTGTGTTTCGCATTGTCATTTACCACATGAAG (double strand) [cepA promoter 121 bp]	binds
